From US20040091578A1 (priority 2001, published 2004)

Key:
castor seed 2S protein = castor seed 2S protein (Ricinus communis, UniProt P01089); assay type: biochemical; conditions: 20 min at 25° C.
pepsin [1] = biological target: T1, pepsin (Sus scrofa, UniProt P00791); test: Pepsin assay in simulated gastric fluid (Example 39); assay type: in vitro ADME, porcine
T1 construct: purchased Sigma
Procedure: BLG, 640 μg, or milk, 1 mg protein (i.e., about 30 μl), was incubated with or without the thioredoxin system (NTS) at either 4° C. […] The BLG, 320 μg, or milk, 500 μg protein, was then treated in 200 μl of simulated gastric fluid (SGF) as described by Astwood, J. D. et al. (1996), “Stability of food allergens to digestion in vitro”, Nature Biotechnol. 14:1269-1273. SGF consists of 0.32% pepsin (w/v) and 30 mM NaCl adjusted at pH 1.2 with HCl (Board of Trustees (ed.) 1995, Simulated Gastric Fluid, TS., pp. 2053 in the United States Pharmacopeia 23, The National Formulary 18. United States Pharmacopeial Convention, Inc. Rockville, Md.). The reaction mixture was incubated at 37° C. and stopped by adding 0.375-fold volume of 160 mM Na2CO3 (ca. pH 7) after 0, 0.25, 1, 2, 4, 8, 15, 30 and 60 min incubation. The protein mixture was then subjected to SDS-PAGE (15% gels) and stained for protein with Coomassie blue as described below. As indicated, the allergenicity of the digested samples was determined by skin test analysis.

atopic dogs = test: Skin tests with milk and BLG in atopic dogs (Example 39); assay type: in vivo; conditions: dog model skin tests
Procedure: Newborn pups from two litters of the atopic dog colony, designated CGB and GCB, were injected subcutaneously at day 1 with 1 μg each of wheat, cows milk and beef extract (Miles, Inc., Elkhart, Ind., described in Example 33) in 0.2 ml of alum. A third litter, designated CBB, was injected with a soy extract (Miles, Inc. described in Example 33) in addition to these same allergens. Procedures for the sensitization, testing and maintenance of the pups were substantially the same as those described in Example 36.
About 3 min prior to skin testing, each dog received 4-5 ml of filtered 0.5% Evans blue dye solution (equivalent to 0.2 ml of 0.5% Evans blue dye per kg of weight) through a cephalic vein to enhance assessment of the cutaneous IgE antibodies. Serial dilutions of 100 μl of each sample were injected intradermally on the abdominal skin to establish the titer. After 15-20 min, the allergic response was determined by measuring the size of the blue wheal reaction (maximum length and width). An appropriate negative control (buffer diluted in physiological saline) was included for each animal tested. Repeated tests with thioredoxin, NTR, NADPH and pepsin alone were consistently negative.

[2] = Redox stability of reduced BLG in air; assay type: physicochemical; conditions: NTS-treated raw milk without buffer, stored at 4° C. in air
Procedure: BLG is known to contain two disulfides, both intramolecular (See, FIG. 8): one clearly accessible on the surface and located close to the C-terminus (Cys 66-Cys 160) and the other, close to the core, located between two β-sheets (Cys 106-Cys 119 or possibly Cys 106-Cys 121). Sequence analysis confirmed that the exposed disulfide (Cys 66-Cys 160) was reduced at 55° C. […] Differential reduction of BLG could also be achieved by altering pH. […] Furthermore, the BLG in this treated milk without buffer remained reduced for 2 days when stored at 4° C. in air (data not shown).
Two sulfhydryl (SH) groups can often spontaneously react to form an S—S bond in the presence of oxygen. […] For example, the reduced form of β-lactoglobulin (BLG), a major allergen of cow's milk, is fully reoxidized after 3 days in air whether reduced by either NTS or DTT. This invention provides for the stabilization of proteins, including allergenic proteins reduced by the NTS at 4° C. and by DTT at 55° C. Other physiological reductants such as lipoic acid may also be used to initially reduce the proteins. In general, the reduction reactions were conducted as described in previous examples. The proteins are stabilized in that the SH groups of these proteins and allergens are blocked and prevented from reoxidizing to form S—S bonds. […]

trypsin [3] = test: Trypsin proteolysis of purified milk allergens; assay type: biochemical; conditions: 10 μg NTS reduced protein, 2 μg trypsin
Procedure: The analysis of the reduction was done using the mBBr/SDS-PAGE techniques. Further in this study, when 10 μg of an NTS reduced purified milk allergen protein, β-lactoglobulin (Sigma Chemical Co.), was treated with 2 μg of trypsin, proteolysis was 100% as compared with only 50% for the identically trypsin treated oxidized β-lactoglobulin. […] However, 10 μg of purified α-lactalbumin reduced by the NTS was proteolyzed 80% by trypsin. Also 10 μg of α-lactalbumin reduced by 0.8 μg of thioredoxin and 0.5 mM DTT was 100% proteolyzed by 2 μg of trypsin.

pepsin [4] = biological target: T1, pepsin; test: Stability to pepsin in simulated gastric fluid (Example 44); assay type: in vitro ADME, porcine; conditions: 37° C., 0.32% pepsin
Procedure: Assay for Stability to Pepsin. BLG (1 mg/ml) or milk (15 mg/ml) were mixed with simulated gastric fluid (SGF) to give 0.32% pepsin and incubated for the indicated times at 37° C. as described in Example 39 and Astwood et al., 1996, herein incorporated by reference. The digested proteins were analyzed by reducing SDS-PACE (10 to 20% gradient gel) also as described in Laemmli, 1970, herein incorporated by reference.

trypsin [5] = test: Trypsin inhibition assay; assay type: biochemical
Procedure: Unless indicated, the reduction of the trypsin inhibitors (0.4 mg/ml) was carried out in 0.1 ml of 20 mM sodium phosphate buffer, pH 7.9 containing 10 mM EDTA at 30° C. for 2 hours. The concentrations of thioredoxin, NTR, and NADPH were 0.024 mg/ml, 0.02 mg/ml, and 0.25 mM, respectively. […] Following reduction, aliquots of the inhibitor mixture were withdrawn either for determination of trypsin inhibitory activity or proteolytic susceptibility. In the subtilisin tests, the inhibitor mixture (50 μl) was directly mixed with subtilisin and incubated at room temperature for 1 hour. […] Proteolytic products were analyzed by electrophoresis with 12% or 16% SDS polyacrylamide slab gels (Laemmli, 1970). […]
Thioredoxin and NTR were assayed as previously described by Florencio et al. (1988). Trypsin activity was measured in 50 mM Tris-HCl, pH 7.9, by following the increase in absorbance at 253 nm with N-benzoyl-L-arginine ethyl ester as substrate (Mundy et al., 1984) or by the release of azo dye into the trichloroacetic acid (TCA)-soluble fraction from azocasein substrate (see below). For trypsin inhibition assays, trypsin (5 to 10 μg) was preincubated with appropriate amounts of KTI or BBTI for 5 minutes at room temperature in 50 mM Tris-HCl, pH 7.9 and proteolytic activity was then determined. […]

trypsin [6] = conditions: soy flour, 30 min at 120° C. (Friedman et al., 1991); cited from earlier work
[7] = tested on: wheat protease preparation; test: Susceptibility to proteolysis by a plant protease preparation, SDS-PAGE densitometry; assay type: biochemical
Procedure: The endosperm (10-15 g fresh weight) isolated from 5-day germinated wheat seeds by excising the roots and shoots was extracted for 30 minutes at 4° C. with 5 volumes of 200 mM sodium acetate, pH 4.6, containing 10 mM β-mercaptoenthanol. The homogenate was centrifuged for 20 minutes at 48,000 g, 4° C. The pellet was discarded and the supernatant fluid was fractionated with 30-70% ammonium sulfate. This fraction, which represented the protease preparation, was resuspended in a minimum volume of 20 mM sodium acetate, pH 4.6, containing 10 mM β-mercaptoenthanol, and dialyzed against this buffer overnight at 4° C.
Unless indicated, the reduction of the trypsin inhibitors (0.4 mg/ml) was carried out in 0.1 ml of 20 mM sodium phosphate buffer, pH 7.9 containing 10 mM EDTA at 30° C. for 2 hours. The concentrations of thioredoxin, NTR, and NADPH were 0.024 mg/ml, 0.02 mg/ml, and 0.25 mM, respectively. […] Following reduction, aliquots of the inhibitor mixture were withdrawn either for determination of trypsin inhibitory activity or proteolytic susceptibility. In the subtilisin tests, the inhibitor mixture (50 μl) was directly mixed with subtilisin and incubated at room temperature for 1 hour. With the wheat protease preparation, the pH of the inhibitor mixture (50 μl) was first adjusted to 4.7 by mixing with 35 μl of 200 mM sodium acetate, pH 4.6; 10 μl of the wheat protease preparation was then added and incubation was continued for 2 hours at 37° C. To stop digestion with subtilisin, 2 μl of 100 mM phenylmethylsulfonyl fluoride (PMSF) and 10 μl of 10% SDS were added to the digestion mixture. With the plant protease preparation, digestion was stopped by adding an equal volume of SDS sample buffer [0.125 M Tris-HCl, pH 6.8, 4% (w/v) SDS, 20% (v/v) glycerol, 10% (v/v) β-mercaptoethanol, and 0.02% (w/v) bromophenol blue]. Proteolytic products were analyzed by electrophoresis with 12% or 16% SDS polyacrylamide slab gels (Laemmli, 1970). The dried slab gels were scanned with a laser densitometer (Pharmacia-LKB UltraScan XL) and the peak area of the KTI or BBTI protein band was obtained by integration with a Pharmacia GelScan XL software program.
To test whether the reduced forms of KTI and BBTI show decreased stability to proteases other than trypsin, both the reduced and oxidized forms of KTI and BBTI were incubated with a wheat protease preparation or with subtilisin and the proteolytic products were analyzed by SDS-PAGE. The extent of proteolysis was determined by measuring the abundance of intact protein on SDS gels by laser densitometer. When tested with a protease preparation from 5-day germinated wheat seeds, the oxidized form of the Kunitz inhibitor was almost completely resistant to digestion whereas the thioredoxin-reduced form was susceptible to protease. […] The nature of the proteolytic reaction was not investigated, but it is noted that peptide products were not detected on SDS gels.

glutaredoxin = biological target: T2, glutaredoxin (Escherichia coli, UniProt P68688); test: Reduction by glutaredoxin, mBBr/SDS-PAGE with densitometric scanning; assay type: biochemical; conditions: E. coli glutaredoxin, glutathione reductase, NADPH
T2 sequence (P68688 1-85): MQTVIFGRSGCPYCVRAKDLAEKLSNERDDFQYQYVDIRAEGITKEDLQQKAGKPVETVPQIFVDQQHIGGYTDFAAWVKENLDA
Procedure: Direct reduction of the proteins under study was determined by a modification of the method of Crawford et al. (Crawford, N. A. et al. (1989), Arch. Biochem. Biophys. 271:223-239). The reaction was carried out in 100 mM potassium phosphate buffer, pH 7.1, containing 10 mM EDTA and 16% glycerol in a final volume of 0.1 ml. As indicated, 0.7 μg (0.1 μM) NTR and 1 μg (0.8 μM) thioredoxin (both routinely from E. coli were added to 70 μl of the buffer solution containing 1 mM NADPH and 10 μg (2 to 17 μM) of target protein. When thioredoxin was reduced by dithiothreitol (DTT, 0.5 mM), NADPH and NTR were omitted. Assays with reduced glutathione were performed similarly, but at a final concentration of 1 mM. After incubation for 20 min, 100 nmoles of mBBr were added and the reaction was continued for another 15 min. To stop the reaction and derivatize excess mBBr, 10 μl of 10% SDS and 10 μl of 100 mM β-mercaptoethanol were added and the samples were then applied to the gels. […]
This ability was tested, using glutaredoxin from E. coli and the seed proteins currently under study. Reduction activity was monitored by the mBBr/SDS polyacrylamide gel electrophoresis procedure coupled with densitometric scanning.

T1 sequence (P00791 60-385): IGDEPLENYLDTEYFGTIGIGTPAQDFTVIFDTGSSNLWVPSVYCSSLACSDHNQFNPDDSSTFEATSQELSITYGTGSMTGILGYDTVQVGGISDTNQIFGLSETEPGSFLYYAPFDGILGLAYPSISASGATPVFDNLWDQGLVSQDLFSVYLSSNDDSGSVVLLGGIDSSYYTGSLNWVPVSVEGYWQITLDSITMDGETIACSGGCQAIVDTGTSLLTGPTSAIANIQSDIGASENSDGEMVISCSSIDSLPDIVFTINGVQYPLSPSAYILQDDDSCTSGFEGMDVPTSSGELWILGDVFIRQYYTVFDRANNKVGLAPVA
Sequence of castor seed 2S protein (P01089 194-258 limits assumed): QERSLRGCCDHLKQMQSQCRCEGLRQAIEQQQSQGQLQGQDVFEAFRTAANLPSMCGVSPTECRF
Sequence of castor seed 2S protein (P01089 157-190 partner limits assumed): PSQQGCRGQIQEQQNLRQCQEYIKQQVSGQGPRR

## O[C@H](CS)[C@H](O)CS (racemic) [DTT, dithiothreitol]
Castor seed 2S protein
  Relative Reduction (%): 67%

## β-lactoglobulin: bovine β-lactoglobulin, major milk allergen; untreated (oxidized) control in Tables XVIII, XXI-XXIV
Pepsin [1]; oxidized BLG in milk
  time resisting digestion in SGF: at least 60 min
Pepsin [1]; thioredoxin-reduced BLG in milk
  time to digestion in SGF: ≤ 60 s
Atopic dogs
  share of the total wheal-inducing activity of milk: 80%
[2]
  time BLG remained reduced: 2 days
Trypsin [3]
  proteolysis by trypsin: 100%
Pepsin [4]
  half-life in SGF: about 2 hours

B1: Soybean Kunitz: Kunitz soybean trypsin inhibitor (protein, UniProt P01070 25-205, looked up)
Trypsin inhibitor A: DFVLDNEGNPLENGGTYYILSDITAFGGIRAAPTGNERCPLTVVQSRNELDKGIGTIISSPYRIRFIAEGHPLSLKFDSFAVIMLCVGIPTEWSVVEDLPEGPAVKIGENKDAMDGWFRLERVSDDEFNNYKLVFCPQQAEDDKCGDIGISIDHDDGTRRLVVSKNKPLVVQFQKLDKESL
Trypsin [5]
  increase in trypsin activity effected by the NADP/thioredoxin system: 3 fold
Trypsin [6]
  original trypsin inhibitor activity remaining: about 20%
[7]; Protease after E. coli NTS
  Relative Abundance: 22.1
[7]; Protease after NTS minus NADPH
  Relative Abundance: 97.7
[7]; Protease after NTS minus NTR
  Relative Abundance: 97.9
[7]; Protease after NTS minus thioredoxin
  Relative Abundance: 90.2
[7]; Protease, No reduction system, no protease = 100
  Relative Abundance: 97.9
[7]; all components of NTS present
  degraded: about 80%
glutaredoxin
  percentage reduction by glutaredoxin relative to E. coli thioredoxin: ineffective
